Biological target: the molecule itself
Assay: SEC

Protein	stoichiometry N
CcmL, pentameric vertex protein of the β-carboxysome from Thermosynechococcus elongatus BP-1 (natural protein) MKIARVCGTVTSTQKEDTLTGVKFLVLQYLGEDGEFLPDYEVAADTVGAGQDEWVLVSRGSAARHIINGTDKPIDAAVVAIIDTVSRDNYLLYSKRTQY	5
HCcmL, CcmL with a pentahistidine tag (Histag) inserted between D33 and G34 (natural protein, Thermosynechococcus elongatus BP-1) MKIARVCGTVTSTQKEDTLTGVKFLVLQYLGEDHHHHHGEFLPDYEVAADTVGAGQDEWVLVSRGSAARHIINGTDKPIDAAVVAIIDTVSRDNYLLYSKRTQY	5

Source: publication PMC8812686 (Proceedings of the National Academy of Sciences of the …, 2022)
